Laboratory results: article PMC3621757, “Structural Plasticity in Human Heterochromatin Protein 1β” (PLoS ONE, 2013)

Biological target: the molecule itself
Assay: small angle X-ray scattering (SAXS); hHP1β (2–185) at 1.0, 2.0 and 5.0 mg/mL, 283 K; 20 mM sodium phosphate pH 6.5, 50 mM NaCl, 2 mM DTT; MW from forward scattering against bovine serum albumin

B1: full-length human Heterochromatin Protein 1β, hHP1β (2–185) (natural protein)
chain: not shown
notes: The His-tag is TEV-protease-cleavable; NMR samples were 15N-perdeuterated; also called full-length hHP1β; source: pET16b expression vector (Novagen); additional size-exclusion chromatography on Superdex200 for SAXS and DLS samples
- stoichiometry N: 2
